Laboratory results from US20230250160A1 (HOBER BIOTECH, published 2023).
Read-outs that look alike come from different tables or passages of the source.

Columns and labels:
[1] = molecular target: T1, Human Serum Albumin (human, UniProt P02768 25-609); test: SPR Biacore T200, HSA on CM5 chip, ADAPT injected, 1:1 fit
T1 construct: also called HSA
Method: (§1) Sensor-based binding analysis was performed using a Biacore T200 system (GE Healthcare, Stockholm, Sweden). All analyses were conducted using CM-5 sensor chips coated with the target antigen, another irrelevant antigen and HSA. One surface was left as reference. Binding analysis was performed in PBS-T at 25° C. The ADAPT variants were diluted in PBS-T to 500 nM, 250 nM, 125 nM, 62.5 nM and 31.25 nM. The samples were injected at a flow rate of 30 ul/min for 120 s followed by injection of PBS-T for 240 s to monitor the dissociation. Surfaces were regenerated with 10 mM HCl. Kinetic parameters were determined using the Biacore Insight Evaluation software, assuming a 1:1 binding.

[2] = molecular target: T1, Human Serum Albumin; test: as above; remark: listed apart in the source
Method: as §1

[3] = molecular target: T2, tumor necrosis factor alpha (human (produced in the Human Secretome …, UniProt P01375 77-233, limits assumed)); test: SPR Biacore T200, target on CM5 chip, ADAPT injected, 1:1 fit
T2 construct: also called TNFα; bTNFα
Method: as §1
(§2) Variants with sufficient alpha helical structure as well as monomeric elution profiles on the SEC column were further analyzed for binding towards their target protein as well as to HSA. The binding towards the target antigen used in the selection was measured by a multi-cycle analysis using SPR, showing that several binders had affinities in the μM-pM range. […] After target binding had been established, the variants were also evaluated for their ability to simultaneously bind to HSA. This was done either through an SPR capture assay or an experiment where the ADAPT was pre-incubated with saturating conditions of HSA before the binding towards the target was analyzed. […] In total, thirteen of the characterized binders from the selections towards TNFα, PSA, ANG, MYDGF and Insulin could bind both HSA and its target antigen simultaneously. FIG. 5 contains sensorgrams for the thirteen variants in the capture assay.

[4] = molecular target: T2, tumor necrosis factor alpha; test: as above; remark: listed apart in the source
Method: as §1

[5] = molecular target: T3, C-reactive protein (human (produced in the Human Secretome …, UniProt P02741 19-224)); test: as above
T3 construct: also called CRP; bCRP
T3 sequence (looked up): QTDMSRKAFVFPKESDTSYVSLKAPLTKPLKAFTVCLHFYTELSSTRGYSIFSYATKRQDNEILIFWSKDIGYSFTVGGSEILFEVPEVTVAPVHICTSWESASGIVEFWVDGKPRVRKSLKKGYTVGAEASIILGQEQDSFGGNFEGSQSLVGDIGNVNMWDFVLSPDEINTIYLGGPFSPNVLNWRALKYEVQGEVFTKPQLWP
Method: as §1, §2

[6] = molecular target: T3, C-reactive protein; test: as above; remark: listed apart in the source
Method: as §1

[7] = molecular target: T4, angiogenin (human (produced in the Human Secretome …, UniProt P03950 25-147)); test: as above
T4 construct: also called bANG
Method: as §1

[8] = molecular target: T4, angiogenin; test: as above; remark: listed apart in the source
Method: as §1, §2

[9] = molecular target: T5, Prostate Specific Antigen (human (produced in the Human Secretome …, UniProt P07288 18-261, limits assumed)); test: as above
T5 construct: also called PSA; bPSA
Method: as §1, §2

[10] = molecular target: T5, Prostate Specific Antigen; test: as above; remark: listed apart in the source
Method: as §1

[11] = molecular target: T6, Human recombinant Insulin (human, UniProt P01308 25-54; P01308 90-110, limits assumed); test: as above
T6 construct: also called bInsulin
Method: as §1, §2

[12] = molecular target: T6, Human recombinant Insulin; test: as above; remark: listed apart in the source
Method: as §1

[13] = molecular target: T7, renin (human (produced in the Human Secretome …, UniProt P00797 24-406, limits assumed)); test: as above
T7 construct: also called bREN
T7 sequence (looked up): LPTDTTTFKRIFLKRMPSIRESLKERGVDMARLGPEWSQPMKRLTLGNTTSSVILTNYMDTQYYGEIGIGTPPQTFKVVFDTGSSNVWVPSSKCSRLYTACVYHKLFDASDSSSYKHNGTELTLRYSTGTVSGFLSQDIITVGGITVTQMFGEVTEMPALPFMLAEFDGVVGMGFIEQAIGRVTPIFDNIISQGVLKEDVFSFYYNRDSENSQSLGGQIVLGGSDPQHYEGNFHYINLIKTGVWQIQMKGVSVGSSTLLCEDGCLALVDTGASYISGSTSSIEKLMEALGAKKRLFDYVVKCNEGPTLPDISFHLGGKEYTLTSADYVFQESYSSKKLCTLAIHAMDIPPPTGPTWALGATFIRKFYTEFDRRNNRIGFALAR
Method: as §1, §2

[14] = molecular target: T7, renin; test: as above; remark: listed apart in the source
Method: as §1

T1 sequence (P02768 25-609 limits assumed): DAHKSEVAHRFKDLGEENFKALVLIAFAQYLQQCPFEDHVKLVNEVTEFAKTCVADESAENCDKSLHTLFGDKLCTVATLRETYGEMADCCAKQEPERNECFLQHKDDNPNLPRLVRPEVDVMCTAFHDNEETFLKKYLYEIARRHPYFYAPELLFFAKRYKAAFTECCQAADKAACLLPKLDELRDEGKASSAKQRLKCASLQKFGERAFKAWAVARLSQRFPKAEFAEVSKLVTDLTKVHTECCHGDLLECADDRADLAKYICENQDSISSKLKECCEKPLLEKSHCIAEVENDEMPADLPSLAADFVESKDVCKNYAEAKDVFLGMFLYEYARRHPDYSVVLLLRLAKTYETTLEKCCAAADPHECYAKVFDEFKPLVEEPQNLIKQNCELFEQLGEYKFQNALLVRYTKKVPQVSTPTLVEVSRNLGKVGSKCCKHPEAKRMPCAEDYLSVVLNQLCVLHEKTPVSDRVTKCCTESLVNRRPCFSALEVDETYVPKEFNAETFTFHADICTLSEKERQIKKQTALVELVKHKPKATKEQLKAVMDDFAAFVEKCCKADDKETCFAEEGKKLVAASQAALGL
T6 sequence (P01308 25-54 limits assumed, chain 1 of 2): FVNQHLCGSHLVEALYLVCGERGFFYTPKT
T6 sequence (P01308 90-110 limits assumed, chain 2 of 2): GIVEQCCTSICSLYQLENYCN
T2 sequence (P01375 77-233 limits assumed): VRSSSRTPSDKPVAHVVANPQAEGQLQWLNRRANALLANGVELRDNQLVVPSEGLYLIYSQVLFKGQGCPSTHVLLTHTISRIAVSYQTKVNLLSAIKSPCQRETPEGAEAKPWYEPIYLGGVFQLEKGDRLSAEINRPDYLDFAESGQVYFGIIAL
T5 sequence (P07288 18-261 limits assumed): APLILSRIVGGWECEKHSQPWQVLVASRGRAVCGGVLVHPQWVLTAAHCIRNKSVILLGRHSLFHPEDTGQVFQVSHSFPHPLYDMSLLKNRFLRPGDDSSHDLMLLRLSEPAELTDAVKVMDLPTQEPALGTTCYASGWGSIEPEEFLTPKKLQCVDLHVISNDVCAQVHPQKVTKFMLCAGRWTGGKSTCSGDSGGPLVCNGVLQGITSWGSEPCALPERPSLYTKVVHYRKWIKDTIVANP
T4 sequence (P03950 25-147 limits assumed): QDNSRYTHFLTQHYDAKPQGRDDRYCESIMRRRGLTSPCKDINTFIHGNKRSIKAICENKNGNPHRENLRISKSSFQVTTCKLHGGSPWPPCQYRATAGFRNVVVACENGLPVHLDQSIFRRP

| Binder | Kd [1] [nM] | Kd [2] [nM] | koff [2] [s⁻¹] | kon [2] [M⁻¹ s⁻¹] | other results |
| --- | --- | --- | --- | --- | --- |
| LIWAKAEAVQELFMYGVSDFYYDLIIKAKTVEGVEALKLHILAALP (designed binder, Single domain of about 6 kDa, made in E. coli, purified on HSA resin) [ADAPT variant TNFα_05] | 18 | 18 | 0.00039 | 21000 | Kd [3]: 2.5 nM; Kd [4]: 2.5 nM; koff [4]: 0.0037 s⁻¹; kon [4]: 1.5e+06 M⁻¹ s⁻¹ |
| LKVAKIIAFHELWEYGVSDFYLSLIDKAKTVEGVEALKLHILAALP (designed binder) [ADAPT variant CRP_38] | 13 | 13 | 0.0054 | 410000 | Kd [5]: 52 nM; Kd [6]: 52 nM; koff [6]: 0.0017 s⁻¹; kon [6]: 33000 M⁻¹ s⁻¹ |
| LYVAKDNADWELWQYGVSDFYRSLIWKAKTVEGVEALKLHILAALP (designed binder) [ADAPT variant ANG_16] | 1 | 1 | 3e-05 | 29000 | Kd [7]: 5.1 nM; koff [7]: 0.0005 s⁻¹; kon [7]: 99000 M⁻¹ s⁻¹ |
| LYWAKDYADYELWQYGVSDFYRSLIWKAKTVEGVEALKLHILAALP (designed binder, also called ANG_2) [ADAPT variant ANG_02] | 2 | 2 | 4.5e-05 | 23000 | Kd [7]: 14 nM; koff [7]: 0.0007 s⁻¹; kon [7]: 52000 M⁻¹ s⁻¹ |
| LWAAKDDADWELWQYGVSDFYRALIWKAKTVEGVEALKLHILAALP (designed binder, also called ANG_6) [ADAPT variant ANG_06] | 1.1 | 1.1 | 2.6e-05 | 24000 | Kd [8]: 4.9 nM; Kd [7]: 4.9 nM; koff [7]: 0.00032 s⁻¹; kon [7]: 65000 M⁻¹ s⁻¹ |
| LHYAKIMAFHELWQYGVSDFYLQLIDKAKTVEGVEALKLHILAALP (designed binder) [ADAPT variant CRP_48] | 15 | 15 | 0.0042 | 280000 | Kd [5]: 62 nM; Kd [6]: 62 nM; koff [6]: 0.0012 s⁻¹; kon [6]: 19000 M⁻¹ s⁻¹ |
| LHEAKDWADYELWSYGVSDFYRALIWKAKTVEGVEALKLHILAALP (designed binder) [ADAPT variant ANG_13] | 2.8 | 2.8 | 6.8e-05 | 25000 | Kd [8]: 0.028 nM; Kd [7]: 0.028 nM; koff [7]: 2.9e-06 s⁻¹; kon [7]: 110000 M⁻¹ s⁻¹ |
| LTVAKFWALTELQEYGVSDFYANLITKAKTVEGVEALKLHILAALP (designed binder) [ADAPT variant PSA_01] | 1.1 | 1.1 | 0.0012 | 1.1e+06 | Kd [9]: 280 nM; Kd [10]: 280 nM; koff [10]: 0.1 s⁻¹; kon [10]: 360000 M⁻¹ s⁻¹ |
| LVIAKAYAQYELAFYGVSDFYSDLIKKAKTVEGVEALKLHILAALP (designed binder, also called INS_01) [ADAPT variant Insulin_01] | 3.9 | 3.9 | 0.0014 | 360000 | Kd [11]: 950 nM; Kd [12]: 950 nM; koff [12]: 0.22 s⁻¹; kon [12]: 240000 M⁻¹ s⁻¹ |
| LAVAKAYAKYELAFYGVSDFYNELILKAKTVEGVEALKLHILAALP (designed binder, also called INS_03) [ADAPT variant Insulin_03] | 3.1 | 3.1 | 0.0014 | 460000 | Kd [11]: 1300 nM; Kd [12]: 1300 nM; koff [12]: 0.22 s⁻¹; kon [12]: 180000 M⁻¹ s⁻¹ |
| LFRAKVWAVWELDQYGVSDFYDELIWKAKTVEGVEALKLHILAALP (designed binder) [ADAPT variant PSA_05] | 3.3 | 3.3 | 0.0003 | 92000 | Kd [9]: 300 nM; Kd [10]: 300 nM; koff [10]: 0.059 s⁻¹; kon [10]: 200000 M⁻¹ s⁻¹ |
| LYHAKWMASLELAKYGVSDFYWNLISKAKTVEGVEALKLHILAALP (designed binder) [ADAPT variant REN_01] | 23 | 23 | 0.00027 | 12000 | Kd [13]: 76 nM; Kd [14]: 76 nM; koff [14]: 0.0024 s⁻¹; kon [14]: 32000 M⁻¹ s⁻¹ |
| LMWAKAEAAIELVDYGVSDFYQYLISKAKTVEGVEALKLHILAALP (designed binder) [ADAPT variant REN_40] | 5.5 | 5.5 | 0.00064 | 120000 | Kd [13]: 410 nM; Kd [14]: 410 nM; koff [14]: 0.0035 s⁻¹; kon [14]: 8700 M⁻¹ s⁻¹ |
| LIWAKASAVRELHRYGVSDFYYELIVKAKTVEGVEALKLHILAALP (designed binder) [ADAPT variant TNFα_09] | 9.5 | 9.5 | 0.00034 | 36000 | Kd [3]: 3.6 nM; Kd [4]: 3.6 nM; koff [4]: 0.0032 s⁻¹; kon [4]: 890000 M⁻¹ s⁻¹ |
| LRVAKSMAWHELWSYGVSDFYLRLIDKAKTVEGVEALKLHILAALP (designed binder) [ADAPT variant CRP_09] | 7.7 | 7.7 | 0.0038 | 490000 | Kd [5]: 1100 nM; Kd [6]: 1100 nM; koff [6]: 0.0013 s⁻¹; kon [6]: 1200 M⁻¹ s⁻¹ |
| LSKAKAQAWHELYYYGVSDFYLSLIDKAKTVEGVEALKLHILAALP (designed binder) [ADAPT variant CRP_23] | 23 | 23 | 0.007 | 300000 | Kd [5]: 1900 nM; Kd [6]: 1900 nM; koff [6]: 0.0017 s⁻¹; kon [6]: 890 M⁻¹ s⁻¹ |
